# Measurements reported in publication PMC4414177 (2015).
# Target: GSTP1-1 (Homo sapiens, UniProt P09211)
# Test: ELISA
row,Kd [µM],Binder
1,2.2,"JNK1α2 (protein, 1 mM GSH) MSRSKRDNNFYSVEIGDSTFTVLKRYQNLKPIGSGAQGIVCAAYDAILERNVAIKKLSRPFQNQTHAKRAYRELVLMKCVNHKNIIGLLNVFTPQKSLEEFQDVYIVMELMDANLCQVIQMELDHERMSYLLYQMLCGIKHLHSAGIIHRDLKPSNIVVKSDCTLKILDFGLARTAGTSFMMTPYVVTRYYRAPEVILGMGYKENVDLWSVGCIMGEMVCHKILFPGRDYIDQWNKVIEQLGTPCPEFMKKLQPTVRTYVENRPKYAGYSFEKLFPDVLFPADSEHNKLKASQARDLLSKMLVIDASKRISVDEALQHPYINVWYDPSEAEAPPPKIPDKQLDEREHTIEEWKELIYKEVMDLEERTKNGVIRGQPSPLGAAVINGSQHPSSSSSVNDVSSMSTDPTLASDTDSSLEAAAGPLGCCR"
2,> 5,"JNK1α2 (protein, 1 mM GSH+8 μM MC3181) MSRSKRDNNFYSVEIGDSTFTVLKRYQNLKPIGSGAQGIVCAAYDAILERNVAIKKLSRPFQNQTHAKRAYRELVLMKCVNHKNIIGLLNVFTPQKSLEEFQDVYIVMELMDANLCQVIQMELDHERMSYLLYQMLCGIKHLHSAGIIHRDLKPSNIVVKSDCTLKILDFGLARTAGTSFMMTPYVVTRYYRAPEVILGMGYKENVDLWSVGCIMGEMVCHKILFPGRDYIDQWNKVIEQLGTPCPEFMKKLQPTVRTYVENRPKYAGYSFEKLFPDVLFPADSEHNKLKASQARDLLSKMLVIDASKRISVDEALQHPYINVWYDPSEAEAPPPKIPDKQLDEREHTIEEWKELIYKEVMDLEERTKNGVIRGQPSPLGAAVINGSQHPSSSSSVNDVSSMSTDPTLASDTDSSLEAAAGPLGCCR"
3,0.42,JNK1α2 (protein) MSRSKRDNNFYSVEIGDSTFTVLKRYQNLKPIGSGAQGIVCAAYDAILERNVAIKKLSRPFQNQTHAKRAYRELVLMKCVNHKNIIGLLNVFTPQKSLEEFQDVYIVMELMDANLCQVIQMELDHERMSYLLYQMLCGIKHLHSAGIIHRDLKPSNIVVKSDCTLKILDFGLARTAGTSFMMTPYVVTRYYRAPEVILGMGYKENVDLWSVGCIMGEMVCHKILFPGRDYIDQWNKVIEQLGTPCPEFMKKLQPTVRTYVENRPKYAGYSFEKLFPDVLFPADSEHNKLKASQARDLLSKMLVIDASKRISVDEALQHPYINVWYDPSEAEAPPPKIPDKQLDEREHTIEEWKELIYKEVMDLEERTKNGVIRGQPSPLGAAVINGSQHPSSSSSVNDVSSMSTDPTLASDTDSSLEAAAGPLGCCR
4,> 10,"TRAF2 CTD (protein, 1 mM GSH+8 μM MC3181) DQDKIEALSSKVQQLERSIGLKDLAMADLEQKVLEMEASTYDGVFIWKISDFARKRQEAVAGRIPAIFSPAFYTSRYGYKMCLRIYLNGDGTGRGTHLSLFFVVMKGPNDALLRWPFNQKVTLMLLDQNNREHVIDAFRPDVTSSSFQRPVNDMNIASGCPLFCPVSKMEAKNSYVRDDAIFIKAIVDLTGL"
5,0.28,TRAF2 CTD (protein) DQDKIEALSSKVQQLERSIGLKDLAMADLEQKVLEMEASTYDGVFIWKISDFARKRQEAVAGRIPAIFSPAFYTSRYGYKMCLRIYLNGDGTGRGTHLSLFFVVMKGPNDALLRWPFNQKVTLMLLDQNNREHVIDAFRPDVTSSSFQRPVNDMNIASGCPLFCPVSKMEAKNSYVRDDAIFIKAIVDLTGL
6,3,"TRAF2 CTD (protein, 1 mM GSH) DQDKIEALSSKVQQLERSIGLKDLAMADLEQKVLEMEASTYDGVFIWKISDFARKRQEAVAGRIPAIFSPAFYTSRYGYKMCLRIYLNGDGTGRGTHLSLFFVVMKGPNDALLRWPFNQKVTLMLLDQNNREHVIDAFRPDVTSSSFQRPVNDMNIASGCPLFCPVSKMEAKNSYVRDDAIFIKAIVDLTGL"
